± gives the standard deviation of the averaged measurements.
Test: total protein half-life in vivo (active degradation + dilution); higher = more stable protein
[1] = E. coli NCM3722 delta-clpP delta-lon delta-hslV, growth: N-lim chemostat, doubling time 6 h
[2] = E. coli NCM3722 delta-clpP, growth: N-lim chemostat, doubling time 6 h
[3] = E. coli NCM3722 delta-hslV, growth: N-lim chemostat, doubling time 6 h
[4] = E. coli NCM3722 delta-lon, growth: N-lim chemostat, doubling time 6 h
[5] = E. coli NCM3722 delta-smpB, growth: N-lim chemostat, doubling time 6 h
[6] = wild type E. coli NCM3722, growth: C-lim chemostat, doubling time 3 h
[7] = wild type E. coli NCM3722, growth: C-lim chemostat, doubling time 6 h
[8] = wild type E. coli NCM3722, growth: C-lim chemostat, doubling time 12 h
[9] = wild type E. coli NCM3722, growth: N-lim chemostat, doubling time 6 h
[10] = wild type E. coli NCM3722, growth: N-lim chemostat, doubling time 12 h
[11] = wild type E. coli NCM3722, growth: P-lim chemostat, doubling time 6 h
[12] = wild type E. coli NCM3722, growth: P-lim chemostat, doubling time 12 h

Sequence | total protein half-life in vivo [1] [h] | total protein half-life in vivo [2] [h] | total protein half-life in vivo [3] [h] | total protein half-life in vivo [4] [h] | total protein half-life in vivo [5] [h] | total protein half-life in vivo [6] [h] | total protein half-life in vivo [7] [h] | total protein half-life in vivo [8] [h] | total protein half-life in vivo [9] [h] | total protein half-life in vivo [10] [h] | total protein half-life in vivo [11] [h] | total protein half-life in vivo [12] [h]
MTDLIQRPRRLRKSPALRAMFEETTLSLNDLVLPIFVEEEIDDYKAVEAMPGVMRIPEKHLAREIERIANAGIRSVMTFGISHHTDETGSDAWREDGLVARMSRICKQTVPEMIVMSDTCFCEYTSHGHCGVLCEHGVDNDATLENLGKQAVVAAAAGADFIAPSAAMDGQVQAIRQALDAAGFKDTAIMSYSTKFASSFYGPFREAAGSALKGDRKSYQMNPMNRREAIRESLLDEAQGADCLMVKPAGAYLDIVRELRERTELPIGAYQVSGEYAMIKFAALAGAIDEEKVVLESLGSIKRAGADLIFSYFALDLAEKKILR [P0ACB2] | 5.37 ± 0.27 | 5.78 ± 1.1 | 4.92 ± 0.25 | 5.46 ± 0.23 | 4.71 ± 0.18 | 2.99 ± 0.082 | 5.43 ± 0.14 | 9.8 ± 1.4 | 5.01 ± 0.34 | 8.03 ± 0.4 | 5.96 ± 0.23 | 11.9 ± 0.21
MTDLTAQEPAWQTRDHLDDPVIGELRNRFGPDAFTVQATRTGVPVVWIKREQLLEVGDFLKKLPKPYVMLFDLHGMDERLRTHREGLPAADFSVFYHLISIDRNRDIMLKVALAENDLHVPTFTKLFPNANWYERETWDLFGITFDGHPNLRRIMMPQTWKGHPLRKDYPARATEFSPFELTKAKQDLEMEALTFKPEEWGMKRGTENEDFMFLNLGPNHPSAHGAFRIVLQLDGEEIVDCVPDIGYHHRGAEKMGERQSWHSYIPYTDRIEYLGGCVNEMPYVLAVEKLAGITVPDRVNVIRVMLSELFRINSHLLYISTFIQDVGAMTPVFFAFTDRQKIYDLVEAITGFRMHPAWFRIGGVAHDLPRGWDRLLREFLDWMPKRLASYEKAALQNTILKGRSQGVAAYGAKEALEWGTTGAGLRATGIDFDVRKARPYSGYENFDFEIPVGGGVSDCYTRVMLKVEELRQSLRILEQCLNNMPEGPFKADHPLTTPPPKERTLQHIETLITHFLQVSWGPVMPANESFQMIEATKGINSYYLTSDGSTMSYRTRVRTPSFAHLQQIPAAIRGSLVSDLIVYLGSIDFVMSDVDR | 6.01 ± 0.11 | 7.18 ± 1.1 | 5.883 ± 0.042 | 6.39 ± 0.17 | 6.2 ± 0.22 | 3.32 ± 0.17 | 6.15 ± 0.1 | 11.43 ± 0.014 | 6.33 ± 0.14 | 12.22 ± 0.12 | 6.224 ± 0.032 | 11.84 ± 0.096
MTDMNILDLFLKASLLVKLIMLILIGFSIASWAIIIQRTRILNAAAREAEAFEDKFWSGIELSRLYQESQGKRDNLTGSEQIFYSGFKEFVRLHRANSHAPEAVVEGASRAMRISMNRELENLETHIPFLGTVGSISPYIGLFGTVWGIMHAFIALGAVKQATLQMVAPGIAEALIATAIGLFAAIPAVMAYNRLNQRVNKLELNYDNFMEEFTAILHRQAFTVSESNKG [P0ABU9] | 5.8 ± 0.98 | 6.17 ± 0.19 | 7.1 ± 0.95 | 6.83 ± 1.3 | 6.07 ± 0.051 | 3.13 ± 0.22 | 6.078 ± 0.021 | 11.9 ± 1.4 | 5.74 ± 0.16 | 11.6 ± 1.6 | 5.93 ± 0.14 | 12.7 ± 0.76
MTDNPNKKTFWDKVHLDPTMLLILLALLVYSALVIWSASGQDIGMMERKIGQIAMGLVIMVVMAQIPPRVYEGWAPYLYIICIILLVAVDAFGAISKGAQRWLDLGIVRFQPSEIAKIAVPLMVARFINRDVCPPSLKNTGIALVLIFMPTLLVAAQPDLGTSILVALSGLFVLFLSGLSWRLIGVAVVLVAAFIPILWFFLMHDYQRQRVMMLLDPESDPLGAGYHIIQSKIAIGSGGLRGKGWLHGTQSQLEFLPERHTDFIFAVLAEELGLVGILILLALYILLIMRGLWIAARAQTTFGRVMAGGLMLILFVYVFVNIGMVSGILPVVGVPLPLVSYGGSALIVLMAGFGIVMSIHTHRKMLSKSV [P0ABG7] | 6.32 ± 0.84 | 6.24 ± 0.34 | 5.73 ± 0.093 | 5.59 ± 0.48 | 5.99 ± 0.59 |  | 5.94 ± 0.34 |  | 6.47 ± 0.14 | 11.5 ± 1.2 | 5.99 ± 0.21 | 11.9 ± 0.4
MTDNTRLRIAMQKSGRLSDDSRELLARCGIKINLHTQRLIAMAENMPIDILRVRDDDIPGLVMDGVVDLGIIGENVLEEELLNRRAQGEDPRYFTLRRLDFGGCRLSLATPVDEAWDGPLSLNGKRIATSYPHLLKRYLDQKGISFKSCLLNGSVEVAPRAGLADAICDLVSTGATLEANGLREVEVIYRSKACLIQRDGEMEESKQQLIDKLLTRIQGVIQARESKYIMMHAPTERLDEVIALLPGAERPTILPLAGDQQRVAMHMVSSETLFWETMEKLKALGASSILVLPIEKMME | 3.9 ± 1 | 2.97 ± 0.12 | 3.093 ± 0.014 | 5.11 ± 1.9 | 3.38 ± 0.042 | 2.99 ± 0.52 | 4.94 ± 0.53 | 7.58 ± 0.31 | 3.29 ± 0.1 | 4.73 ± 0.14 | 5.32 ± 0.63 | 11.2 ± 0.66
MTDNTYQPAKVWTWDKSAGGAFANINRPVSGPTHEKTLPVGKHPLQLYSLGTPNGQKVTIMLEELLALGVTGAEYDAWLIRIGDGDQFSSGFVEVNPNSKIPALRDHTHNPPIRVFESGSILLYLAEKFGYFLPQDLAKRTETMNWLFWLQGAAPFLGGGFGHFYHYAPVKIEYAINRFTMEAKRLLDVLDKQLAQHKFVAGDEYTIADMAIWPWFGNVVLGGVYDAAEFLDAGSYKHVQRWAKEVGERPAVKRGRIVNRTNGPLNEQLHERHDASDFETNTEDKRQG | 5.11 ± 0.38 | 5.1 ± 0.095 | 4.77 ± 0.093 | 5.02 ± 0.099 | 4.78 ± 0.57 | 3.18 ± 0.21 | 5.63 ± 0.16 | 9.78 ± 2.2 | 5.31 ± 0.2 | 9.72 ± 3.6 | 5.6 ± 0.21 | 11.8 ± 0.8
